These results are taken from IntAct's records for PubMed 11134024.

To fix the notation:
B1: Numb-related protein 1 (Caenorhabditis elegans), Q9XTY6 (parent)
chain: MSASQGNVFTRGLSRISRRKKKTKSIQNSLVSEQQPSFDAAIVPMPIPNDKSSIFSKGMDRLRRSLRLPKKRRDRSHDRHLSPDVTGGSKTEQWQPDEGAVRTGTCCFNVKYLGSVEVYESRGMQVCEGALKSLKASRRKPVKAVLYVSGDGLRVVDQGNSRGLLVDQTIEKVSFCAPDRQTDKGFAYICRDGASRRWMCHGFLATKETGERLSHAVGCAFSICLEKKKRRDEETAQVNVQSAQESTSSTPPKDIFHPNWEDNTSEGTSTQNPSNSRSNLAYQSFRKHVSIEDRYLDPQSVIINEVPASNHMDEIRRISKPRPTGNPALFLRQGSLRAPPDMPSSSDQFKRNMSLRTVSNNPTERSPEKKSFGTQLYNEPIYEGDEDPLGLGITPPVVTKTSGSLSNNGLDGINLNWKSIPAPVHQMQQHNANGDFVAAWPQNTIEKPTVGPLDKLQKQFEDIKLISISSGENTPTTRSKADEWLDDVLRVSMSMSPTSPSSDPPSTSSYSVLPKSGPPPAHAPPPLPVRQAVSNGSPSIYQQQLQQANSTRNSPAGINWNSSPNPMKISQPPAKPVDPFDVQWSRLAVNNTH
partner: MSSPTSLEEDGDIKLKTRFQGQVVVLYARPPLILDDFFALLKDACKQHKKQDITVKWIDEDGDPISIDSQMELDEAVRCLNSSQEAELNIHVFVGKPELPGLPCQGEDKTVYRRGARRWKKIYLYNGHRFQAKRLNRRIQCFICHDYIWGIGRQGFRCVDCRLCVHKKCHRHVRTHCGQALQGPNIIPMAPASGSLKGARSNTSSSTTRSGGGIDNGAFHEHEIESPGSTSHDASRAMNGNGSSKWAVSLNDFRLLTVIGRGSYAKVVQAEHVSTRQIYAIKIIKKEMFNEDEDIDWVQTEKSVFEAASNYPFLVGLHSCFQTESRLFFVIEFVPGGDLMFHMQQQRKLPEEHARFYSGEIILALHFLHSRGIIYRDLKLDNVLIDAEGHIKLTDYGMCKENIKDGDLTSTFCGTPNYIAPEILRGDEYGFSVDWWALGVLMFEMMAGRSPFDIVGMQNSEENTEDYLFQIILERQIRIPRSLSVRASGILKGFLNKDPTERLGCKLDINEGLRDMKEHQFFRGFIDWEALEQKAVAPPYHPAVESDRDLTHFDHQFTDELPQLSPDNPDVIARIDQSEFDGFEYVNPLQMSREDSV

The first assay covers variants of B1. The following applies: with kpc3_caeel pkc-3, Q19266.
As for F221L, the “effect of a mutation on the interaction” value is reported as “decreasing interaction”.

The variants in the next assay derive from B1. Conditions: with kpc3_caeel pkc-3, Q19266. This is another data set of the same source.
F221L: the “effect of a mutation on the interaction” value is given as “decreasing interaction”. Still for that read-out and setting: with F175L the entry was “decreasing interaction”.
